In general, Kd refers to the concentration at which binding is half-saturated.

First the molecules themselves.
B2: PRTN3 recombinant protein (enzyme, human, UniProt P24158 28-248, looked up)
chain: IVGGHEAQPHSRPYMASLQMRGNPGSHFCGGTLIHPSFVLTAAHCLRDIPQRLVNVVLGAHNVRTQEPTQQHFSVAQVFLNNYDAENKLNDVLLIQLSSPANLSASVATVQLPQQDQPVPHGTQCLAMGWGRVGAHDPPAQVLQELNVTVVTFFCRPHNICTFVPRRKAGICFGDSGGPLICDGIIQGIDSFVIWGCATRLFPDFFTRVALYVDWIRSTLR
notes: Proteinase 3 (PRTN3), human, bought recombinant protein; see the vendor's sheet for HY-P70509; also called hPRTN3; hPR3; source: bought: ACE (HY-P70509)

The target in test [1] is B2. The test is described as follows: SPR; Biacore K8, CM5 chip; 'target proteins' at 20 μg/mL in PBS pH 7.2 immobilised by amine coupling at 25 °C (which partner is not stated); 300 s dissociation; steady-state analysis. Particulars: both partners purified. In general terms: Surface plasmon resonance follows binding to a sensor surface in real time, without labels.
Test [2] has as its target T1, STAT3 recombinant protein (whole STAT3) (human, UniProt P40763 1-770).
T1 construct: STAT3, human, bought recombinant protein with the N-terminal domain; In the cleavage test STAT3 ran as a ~120 kDa monomer, which may mean a carrier tag (surmise); also called recombinant human STAT3; source: bought: one of Abcam (Ab43618), ACRO (ST3-H5149), ACE (HY-P70574)
The description is as above. Particulars: both partners purified.

B1: N-terminal domain of STAT3, recombinant (domain or fragment)
chain: MAQWNQLQQLDTRYLEQLHQLYSDSFPMELRQFLAPWIESQDWAYAASKESHATLVFHNLLGEIDQQYSRFLQESNVLYQHNLRRIKQFLQSRYLEKPMEIARIVARCLWEESRLLQTAATAAQQGGQAN
modifications: Limits of the purchased recombinant N-terminal domain are not given; 1-130 is taken from the paper's own shortest Flag-STAT3 truncation (1-130), which matches the usual N-terminal domain boundary. …
Regarding B1, in test [1], the Kd came to 6.91 µM.

With B2, the Kd in test [2] amounted to 0.224 µM.

(Values after paper PMC11165011, “Proteinase 3 depletion attenuates leukemia by promoting myeloid differentiation” (Cell Death and Differentiation, 2024).)
